The text below walks through data of PMC8908268 (The Journal of Biological Chemistry, 2022).

For assay [1], the target named is His-tagged, doubly phosphorylated LAT (48–233aa; pY132 and pY171) (UniProt O43561). The experiment in a line: co-sedimentation.
Assay [2] has as its target T1, Halo-tagged full-length Gads (Grb2-related adapter protein downstream of Shc), 1–322aa (UniProt O89100 1-322).
T1 sequence: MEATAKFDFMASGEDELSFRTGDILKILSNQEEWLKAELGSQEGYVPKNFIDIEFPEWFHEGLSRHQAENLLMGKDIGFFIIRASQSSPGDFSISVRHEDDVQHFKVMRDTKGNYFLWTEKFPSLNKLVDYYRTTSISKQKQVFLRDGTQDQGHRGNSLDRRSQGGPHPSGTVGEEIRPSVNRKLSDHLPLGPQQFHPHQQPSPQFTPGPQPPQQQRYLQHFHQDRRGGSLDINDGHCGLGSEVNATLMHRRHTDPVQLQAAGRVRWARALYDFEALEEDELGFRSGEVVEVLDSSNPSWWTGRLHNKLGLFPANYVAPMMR
The experiment in a line: co-sedimentation.

“And” between values parts separate entries of the source, which are not always exact repeats. Equal entries are not always repeated.

B1: Halo-tagged full-length Gads (Grb2-related adapter protein downstream of Shc), 1–322aa (natural protein)
chain: MEATAKFDFMASGEDELSFRTGDILKILSNQEEWLKAELGSQEGYVPKNFIDIEFPEWFHEGLSRHQAENLLMGKDIGFFIIRASQSSPGDFSISVRHEDDVQHFKVMRDTKGNYFLWTEKFPSLNKLVDYYRTTSISKQKQVFLRDGTQDQGHRGNSLDRRSQGGPHPSGTVGEEIRPSVNRKLSDHLPLGPQQFHPHQQPSPQFTPGPQPPQQQRYLQHFHQDRRGGSLDINDGHCGLGSEVNATLMHRRHTDPVQLQAAGRVRWARALYDFEALEEDELGFRSGEVVEVLDSSNPSWWTGRLHNKLGLFPANYVAPMMR
Consider B1, for which the % of protein binding to LUV in assay [1] is 26.3% and 31.4% and 42.8%.

B2: SLP-76 tyrosine- and proline-rich domains (103–258aa with Y113F and Y173F mutations) (domain or fragment)
chain: GGWSSFEEDDFESPNDDQDGEDDGDYESPNEEEEAPVEDDADYEPPPSNDEEALQNSILPAKPFPNSNSMFIDRPPSGKTPQQPPVPPQRPMAALPPPPAGRNHSPLPPPQTNHEEPSRSRNHKTAKLPAPSIDRSTKPPLDRSLAPFDREPFTLG
As to B2, the binding result in assay [2] was “binds”.
